Two molecules from article PMC7396694, “Two MarR-Type Repressors Balance Precursor Uptake and Glycine Betaine Synthesis in Bacillus subtilis to Provide Cytoprotection Against Sustained Osmotic Stress” (Frontiers in Microbiology, 2020) can be followed below.

The target of data set [1] is T1, GbsR-Strep-tag II (Bacillus subtilis JH642) (UniProt P71015).
T1 sequence: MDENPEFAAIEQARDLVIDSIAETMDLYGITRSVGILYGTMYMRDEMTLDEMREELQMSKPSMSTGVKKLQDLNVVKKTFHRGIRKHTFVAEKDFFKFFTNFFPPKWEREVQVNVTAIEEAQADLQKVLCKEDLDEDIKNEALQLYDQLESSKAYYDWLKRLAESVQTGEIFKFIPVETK
The data set can be described thus: EMSA. The following applies: 10 mM Tris pH 8, 150 ug/ml herring sperm DNA, 7.5% glycerol, 1 pmol DNA in 20 ul, 20 min at 25 C; native 8% polyacrylamide gel.

Data set [2] deals with the molecule itself. As to the kind of experiment: SEC; HiLoad 16/600 Superdex 200 pg; 2 ml protein solution (1 mg/ml) loaded immediately after affinity purification; 100 mM potassium phosphate (pH 8), 300 mM NaCl; column standardised with thyroglobulin, albumin, ovalbumin, cytochrome C. (In general: Size exclusion chromatography separates by hydrodynamic size, large species first.)

As for “GGGACTTTGACAGTTTAAAAACCATATGTTAGATTAAGGTTGTTAAAAACATTAAATTTTTATTTAACAAACTTTATTTACGTCAAGGAGGCTTAT (double strand) [gbsA fragment with GbsR operator]”, the binding entry in data set [1] is recorded as “binds”.

B1: GbsR-Strep-tag II recombinant protein (natural protein, Bacillus subtilis, UniProt P71015 1-180, looked up)
chain: MDENPEFAAIEQARDLVIDSIAETMDLYGITRSVGILYGTMYMRDEMTLDEMREELQMSKPSMSTGVKKLQDLNVVKKTFHRGIRKHTFVAEKDFFKFFTNFFPPKWEREVQVNVTAIEEAQADLQKVLCKEDLDEDIKNEALQLYDQLESSKAYYDWLKRLAESVQTGEIFKFIPVETK
notes: GbsR, choline-responsive MarR-type repressor of Bacillus subtilis; coding region of gbsR amplified from chromosomal DNA of B. subtilis JH642; also called GbsR repressor; not shown: Strep-tag II, C-terminal, kept
Take B1: in data set [2], the “stoichiometry N” value came out at 2.

Usually stoichiometry N stands for a count of units in the complex or per binding partner.
